The RNAGym collection of RNA variant scans (doi:10.1073/pnas.2313332121)
This sample holds only a part of the variants without activity.

B1: TPR 5TU (parent)
chain: GGAUCUUCUCGAUCUAACAAAAAAGACAAAUCUGCCACAAAGCUUGAGAGCAUCUUCGGAUGCAGAGGCGGCAGCCUUCGGUGGCGCGAUAGCGCCAACGUUCUCAACUAUGACACGCAAAACGCGUGCUCCGUUGAAUGGAGUUUAUCAUG

Variants of: B1
Experiment: polymerase ribozyme fitness, log enrichment relative to wild type (log ratio); higher = more active; in vitro selection for triplet polymerase activity
Outline: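 One round of in vitro selection, in triplicate, was applied to PCR-built, transcribed mutant libraries of each subunit of a heterodimeric triplet polymerase ribozyme. The steps were annealing with a biotinylated primer, partner subunit and triplets, incubation frozen at −7 °C, gel excision of extended constructs, streptavidin-bead capture and RT-PCR. Fitness is the logarithm, base 2, of genotype enrichment over wild-type enrichment from inverse-variance-weighted replicate averages of Illumina-sequenced inputs and outputs, keeping genotypes with ≥10 input reads and ≥1 read per output.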

| Variant | polymerase ribozyme fitness (log ratio) |
| --- | --- |
| G25A A37G C54A C87G | ≤ -4.2 |
| A26C C93G C114U | -4.19 |
| G25A U55A U135A | -3.79 |
| A26C C96U G124A | -1.67 |
| A26G A40C C63U G80U G92A G126U A142U | ≤ -4.2 |
| A26G C75U C96U | ≤ -4.2 |
| G25C A30U U78C C96G | -3.97 |
| A24U U102C A120G A121C | -2.13 |
| A26U C96U A142C | -3.03 |
| G25U A89C | -3.41 |
| G25C C36U C57A | -3.99 |
| A26U A91G G140C C149A | ≤ -4.2 |
| G25C C57A C87U A97G | -3.23 |
| A26C C38U C69A U77G G88U | ≤ -4.2 |
| G25U C85U C116G A120U G141C | ≤ -4.2 |
| G25C G68C C93A C99G C114U | ≤ -4.2 |
| G25C C27G C32U A40C U55A C57A G88U C96U G141A | ≤ -4.2 |
| G25U A37C G83A U134C | -2.66 |
| A26C A64G G83U C85G A115G | ≤ -4.2 |
| G25C G50U C96U A97U | -3.33 |
| A26U A37C C95G A107C G152U | ≤ -4.2 |

| Variant | polymerase ribozyme fitness (log ratio) |
| --- | --- |
| G25U C85A | -3.88 |
| G25U C85G | -3.79 |
| A26U A49C U111G | ≤ -4.2 |
| A26U A147U | -0.0486 |
| A26G C36U G65C A91G U111G C149A | ≤ -4.2 |
| A26C U53A U56A C114U | -3.79 |
| A26G A89U | -4.16 |
| A26U G42U U44A U55A G59U C103G A119G A120U G140U | ≤ -4.2 |
| A26G C38A A60U A64C C76U | ≤ -4.2 |
| A26U G46U G58A A73U C85G U111G A150U | ≤ -4.2 |
| G25C C54A C76U G88A | ≤ -4.2 |
| A26C C57G G80A | -4.09 |
| A26C C32G C54U C87G C95U | -3.91 |
| G25U G84U | -3.64 |
| A24U U61A C93A C116G | -4.17 |
| A26C U56A A60U U82G | -2.45 |
| G25A A26G A40G A47C C85A C116G A119C | ≤ -4.2 |
| G25U C85U U101C | -2.41 |
| G25U G71C U145G | ≤ -4.2 |
| A26C A52G | -1.25 |
| A26U A41C G71U C95A | ≤ -4.2 |

| Variant | polymerase ribozyme fitness (log ratio) |
| --- | --- |
| A26U C51A C54A C57U U90C C93G | ≤ -4.2 |
| A26U C51U G58C | -2.08 |
| A26U G46U G48U G81U G83C C99G | ≤ -4.2 |
| G25U G84A C131U G136A U144G | -1.89 |
| G25U U55G A122U | -3.1 |
| A26U C103A C114U | ≤ -4.2 |
| A26C C93A | -3.21 |
| A26U C43U U53A G100C | ≤ -4.2 |
| G25C G88U G124A G128U U135C | ≤ -4.2 |
| A26C U134G | -4.1 |
| G25C A52C G58C G59C A138U | ≤ -4.2 |
| G25C C75A U104A A119U U134G U135A | ≤ -4.2 |
| A26C A41C A49C G62C A138G | ≤ -4.2 |
| G25U A47G A60G C75A A91U A122U G141C A142G | ≤ -4.2 |
| G25C C38A G50C G92C U130G | ≤ -4.2 |
| G25C G83U | -2.85 |
| G25A A64G G88A | ≤ -4.2 |
| A26U C35G C69A G92A C96A A97G A120C | ≤ -4.2 |
| A26C C85U | -1.86 |
| G25C A119C | -2.68 |
| A26C C76A | -3.75 |

| Variant | polymerase ribozyme fitness (log ratio) |
| --- | --- |
| G25U A30C A47C C99G U101G C105A | ≤ -4.2 |
| A26C A52U C54U G58A G71A G74C C87U C108A | ≤ -4.2 |
| A26U C75U | -3.23 |
| G25U C35A A41G C54U C87U C95U | -3.99 |
| A26U A60U U111G G141U | -3.78 |
| A26C G88U G92U G117U | ≤ -4.2 |
| A26G A52C G59C A64C | ≤ -4.2 |
| G25A U31A U56A G58A A60C C95U U135A | -1.75 |
| G25U C54A G80A | -4.05 |
| A26C C32G C57G | ≤ -4.2 |
| G25U A39U U55A U102C U109G C114U A120U A122G U144G | ≤ -4.2 |
| A26U A28C A52C G58A U139G A147C | ≤ -4.2 |
| A26C A30U C79U | ≤ -4.2 |
| A26C A52C U53A | ≤ -4.2 |
| G25U G42A A49C G80A C85G C95U C103A | ≤ -4.2 |
| A26U C43A A49G G58C C93U G112A | ≤ -4.2 |
| A26U A39C U45A A60C U61G G83C U102C U111G | ≤ -4.2 |
| A26C A47C A52C G58C G71A G100C C116A | ≤ -4.2 |
| A26G G48A | ≤ -4.2 |
| A26G A91U U104G A122C | ≤ -4.2 |
| G25C U56G G84A A89G U130C | -2.97 |
